Common to all, as to type: cell-based
Assay [1] deals with T1, Orai1-ΔN, Orai1-ΔC, Orai1-ΔN73 (Homo sapiens, UniProt Q96D31).
T1 construct: expressed in transfected cells; host or cells: HEK 293
The experiment in a line: Whole-cell recording of ICRAC with truncated Orai1 and CAD. The following applies: cells expressing Orai1-ΔN73. As for the experimental part:
(§1) Electrophysiology. HEK 293 cells were transfected 8-24 h prior to electrophysiology experiments with STIM1- and Orai1-derived constructs in a 1:1 mass ratio using Lipofectamine 2000. […] ICRAC in cells cultured without LaCl3 was similar to that in cells cultured with LaCl3, but most cells without LaCl3 died soon after break-in.
(§2) Currents were recorded using standard whole-cell patch clamp techniques (Prakriya and Lewis, 2001). Pipettes of resistance 2-5 MΩ were filled with an internal solution containing (in mM) 150 Cs aspartate, 8 MgCl2, 10 EGTA, and 10 HEPES (pH 7.2 with CsOH). Currents were sampled at 5 kHz and filtered at 2 kHz, and all voltages were corrected for the junction potential of the pipette solution relative to Ringer's in the bath (−13 mV).
Patch-clamp Experiments. Pipette-membrane seals were formed in 2 mM Ca^2+ Ringer's solution. After break-in to the whole-cell configuration, voltage stimuli consisting of a 100-ms step to −100 mV followed by a 100-ms ramp from −100 to +100 mV were delivered every 5 s from the holding potential of +30 mV. After the currents reached a steady level (˜300 s for wild-type STIM1), the external solution was changed via a multibarrel local perfusion pipette to a high-Ca^2+ Ringer's containing (in mM) 130 NaCl, 4.5 KCl, 20 CaCl2, 1 MgCl2, 10 D-glucose, and 5 HEPES (pH 7.4 with NaOH). […]

For assay [2], the target named is T2, CRAC channels (Homo sapiens, UniProt Q96D31).
T2 construct: expressed in transfected cells; host or cells: HEK 293
T2 sequence (Q96D31 whole entry): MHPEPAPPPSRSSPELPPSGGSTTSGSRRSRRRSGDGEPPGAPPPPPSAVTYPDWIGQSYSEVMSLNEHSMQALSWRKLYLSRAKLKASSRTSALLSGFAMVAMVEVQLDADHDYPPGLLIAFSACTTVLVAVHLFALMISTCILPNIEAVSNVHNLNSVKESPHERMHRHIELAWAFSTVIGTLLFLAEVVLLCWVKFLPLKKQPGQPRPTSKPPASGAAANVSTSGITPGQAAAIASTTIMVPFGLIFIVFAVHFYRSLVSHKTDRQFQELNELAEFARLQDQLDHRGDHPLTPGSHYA
The assay can be described thus: [Ca2+]i imaging in HEK 293 cells expressing STIM1 fragment and Orai1. As to conditions: HEK 293 cells coexpressing construct and Orai1, no store depletion. The procedure:
Ca^2+ Imaging. For FIG. 2, cells were loaded at 37° C. in DMEM with 1 μM fura-2/AM for 30 min. Ratiometric Ca2+ imaging was performed at 340 and 380 nm in 2 mM Ca2+ Ringer's solution with a Nikon Eclipse 2000-U inverted microscope equipped with a fluorescent arc lamp, excitation filter wheel, and a Hamamatsu Orca CCD camera. Images were collected using Openlab (Improvision) and analyzed using Igor Pro.
To determine if CAD activates store operated Ca^2+ influx in cells, we measured [Ca^2+]i in HEK 293 cells expressing CAD and Orai1.

For assay [3], the target named is Orai1 (Homo sapiens, UniProt Q96D31). The experiment in a line: Whole-cell patch clamp recording of ICRAC in transfected HEK 293 cells. As to conditions: compared with native ICRAC. Also on record: expressed in transfected cells; host or cells: HEK 293. The procedure:
as §1, §2
Patch-clamp Experiments. Pipette-membrane seals were formed in 2 mM Ca^2+ Ringer's solution. After break-in to the whole-cell configuration, voltage stimuli consisting of a 100-ms step to −100 mV followed by a 100-ms ramp from −100 to +100 mV were delivered every 5 s from the holding potential of +30 mV. After the currents reached a steady level (˜300 s for wild-type STIM1), the external solution was changed via a multibarrel local perfusion pipette to a high-Ca^2+ Ringer's containing (in mM) 130 NaCl, 4.5 KCl, 20 CaCl2, 1 MgCl2, 10 D-glucose, and 5 HEPES (pH 7.4 with NaOH). All data were leak-corrected using the current elicited in 20 mM Ca^2+ Ringer's+10 μM LaCl3 at the end of the each experiment. LaCl3 and 2-APB were added directly to parent solutions on the day of the experiment from 10 mM and 100 mM stocks in H2O and DMSO, respectively.
As a definitive test for CRAC channel activation, we conducted whole-cell patch clamp recordings from HEK 293 cells transiently transfected with myc-Orai1 and either YFP-STIM1 or YFP-CAD. In cells expressing full length YFP-STIM1, ICRAC appeared over several minutes following break-in, consistent with the typical slow activation seen in response to passive store depletion (FIG. 2D). […] In contrast, inward current was present from the moment of break-in in cells expressing YFP-CAD (FIG. 2E). This current was identified as ICRAC based on its dependence on extracellular Ca^2+, inward rectification, sequential enhancement and inhibition by 2-APB, and inhibition by La^3+ (FIG. 2E and FIG. 10 C, D). ICRAC was not observed at break-in in HEK 293 cells transfected with YFP or YFP-CAD in the absence of Orai1 (FIG. 2F), consistent with the low level of endogenous STIM1 and Orai1 in these cells. […] Inactivation was restored by addition of STIM1 residues carboxy-terminal to CAD.
A general note: The patch-clamp technique gives a direct electrical read-out from membranes.

The target in assay [4] is T3, GFP-Orai1 (Homo sapiens, UniProt Q96D31).
T3 construct: expressed in transfected cells
T3 sequence (Q96D31 whole entry): as above
The assay can be described thus: Fluorescence recovery after photobleaching (FRAP) of GFP-Orai1. The procedure: Fluorescence Recovery After Photobleaching (FRAP). Inducible HEK 293 cells were transiently transfected with mCh-CAD and maintained with 10 μM LaCl3 to suppress chronic Ca2+ entry. After 15-16 h, eGFP-myc-Orai1 expression was induced with 1 μg/ml tetracycline in medium containing LaCl3. Cells were rinsed with 2 mM Ca2+ Ringer's solution at 24 h post-transfection prior to imaging on the confocal system described above. Prebleach and recovery images were scanned at 488 nm at low power (20 mW Ar laser, 50% power, 6% transmission). A 3-μm strip was bleached at 50% laser power with full transmission for ˜2 s. Bleaching during the recovery period was negligible (<5%). FRAP recovery curves were analyzed with ImageJ (W. S. Rasband, NIH, Bethesda, Md., following a published method in which an empirical formula approximating the one-dimensional solution of the diffusion equation is fitted to the time course of fluorescence recovery within the bleached ROI. An offset was introduced to account for incomplete bleaching. The
where I(t) is the mean intensity within the bleached region at time t, Ib is the intensity immediately after bleaching, If is the intensity after full recovery, w is the width of the bleached region, and D is the effective diffusion coefficient, was fit to the FRAP recovery curves with Igor Pro 5.0 (Wavemetrics) to determine D. Mobility was determined as (If−Ib)/(I0−Ib), where If and Ib are defined as above, and I0 is the initial intensity within the ROI after correction for the loss of whole-cell fluorescence by the bleaching pulse (˜10%).
To test whether CAD also clusters CRAC channels in intact cells, we conducted fluorescence recovery after photobleaching (FRAP) experiments of GFP-Orai1 expressed alone or with CAD in HEK 293 cells. […] In cells co-expressing GFP-Orai1 and CAD, the mobile fraction was unchanged (87±4%) but Orai1 diffusion was slowed by a factor of two (D=0.036±0.006 μm^2/s, n=6).

T1 sequence (Q96D31 74-301): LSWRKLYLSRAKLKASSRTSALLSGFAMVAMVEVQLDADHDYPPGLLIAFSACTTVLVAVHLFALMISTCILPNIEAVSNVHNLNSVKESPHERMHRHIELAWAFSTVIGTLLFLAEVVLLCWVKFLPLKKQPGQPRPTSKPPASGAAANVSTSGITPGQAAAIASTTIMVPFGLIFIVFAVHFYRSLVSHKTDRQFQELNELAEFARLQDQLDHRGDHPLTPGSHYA
Orai1, sequence (Q96D31 whole entry): as the sequence (Q96D31 whole entry) above

Consider “CAD: 107-residue CRAC activation domain within the C-terminus of STIM1 (aa 342-448), SEQ ID NO:1”, for which, in assay [1], the “constitutive ICRAC activation” value is reported as “constitutively activated ICRAC”. In addition, the “[Ca2+]i / CRAC channel activation” value in assay [2] was “sustained [Ca^2+]i elevation”. In addition, the “fast Ca2+-dependent inactivation of activated current” value in assay [3] is “lacked fast Ca^2+-dependent inactivation”. The “mobile fraction of GFP-Orai1” value in assay [4] (HEK 293 cells co-expressing GFP-Orai1 and CAD) is 87±4%. In assay [4] (HEK 293 cells co-expressing GFP-Orai1 and CAD, n=6), the “effective diffusion coefficient (D) of GFP-Orai1, mean” value worked out at 0.036±0.006 μm^2/s. In addition, in assay [4] (single cell expressing eGFP-Orai1 with CAD (FIG. 6D)), the “diffusion coefficient of eGFP-Orai1, single-cell fit” value is given as 0.026 μm^2/s.
